Target: SARS-CoV-2 spike protein receptor-binding domain (RBD) (SARS-CoV-2, UniProt P0DTC2 319-541)
Assay: SPR

B1: #41 (antibody, V domains shown)
VH: QVQLVQSGAEVKKPGASVKVSCKVSGYTSPATIHWVRQAPGKGLEWMGGISPYKGDTIYAQKFQGRVTMTEDTSTDTAYMELSSLKSEDTAVYYCAKDSYYYDSSGSGLGGGFDYWGQGTLVTVSS
VL: DIQMTQSPSSVSASVGDRVTITCRASRDISSYLAWYQQKPGKAPKLLIYGASTRASGVPSRFSGSGSGTDFTLTISSLQPEDFANYYCLQYSIYPWTFGGGTKVEIK
  Kd: 0.295 nM
